From patent US20110236385A1 (GOVERNMENT OF THE UNITED STATES OF AMERICA AS REPRESENTED …, published 2011)
Numbering of substitutions follows the chain as printed. Names and notes keep the numbering of the source. Ends that are not written are not given here.

Columns and labels:
[1] = biological target: CA125 on the cell surface of OVCAR-3 or YOU cells (human) (UniProt Q8WXI7); assay: cell-based or functional assay
[2] = biological target: soluble CA125 in OVCAR-3 supernatant (human) (UniProt Q8WXI7); assay: sandwich ELISA, captured rFc fusion at various concentrations, OVCAR-3 supernatant, OC125 detection; nonlinear regression/Scatchard
[3] = biological target: soluble CA125 in OVCAR-3 supernatant (human) (UniProt Q8WXI7); assay: sandwich ELISA; average KD told of three proteins
[4] = biological target: T1, CA125 on the cell surface of OVCAR-3 or YOU cells (human, UniProt Q8WXI7 1-14507, heavily glycosylated with O-linked and N-linked oligosaccharides); assay: flow cytometry on OVCAR-3 cells, FULL set to 100%
T1 construct: whole, on cells; also called MUC16; human CA125
Description: FIGS. 6A-B. Binding of truncated mutants and alanine mutants to CA125 on the cell surface of OVCAR-3 cells. A. OVCAR-3 ovarian cancer cells were incubated with full-length extracellular domain of mesothelin (FULL), Region I, IAB or IBC. The binding was visualized with a goat anti-rabbit IgG PE-conjugated secondary antibody by flow cytometry (gray line). Light gray shaded plot: secondary antibody only. B. A fluorescence intensity (geometrical mean) was used to quantitatively measure the CA125 binding. In each experiment, the binding of the full-length mature form of mesothelin (FULL) to CA125 was determined as 100% of binding. The secondary antibody only was used as a negative (0%) control.
(§1) Flow cytometry—To determine binding of mesothelin fragments to CA125 on the cell surface, OVCAR-3 or YOU cells were grown until confluent, detached, and then incubated with 1 μg/mL of mesothelin or its fragments in FACS buffer (5% BSA, 0.01% NaN₃) for 1 h on ice. Bound fragments were detected by incubating with a 1:200 dilution of Goat anti-Rabbit IgG-PE (Biosource) secondary antibody in FACS buffer for 0.5 h on ice. Cells were analyzed using FACSCalibur (BD Biosciences). Each binding experiment was repeated three to five times.
Cell binding assays by flow cytometry—To assess binding to CA125 on cancer cells, wild-type mesothelin and its mutants were incubated with cells. […]

[5] = biological target: T2, soluble CA125 in OVCAR-3 supernatant (human, UniProt Q8WXI7 1-14439, limits assumed, heavily glycosylated with O-linked and N-linked oligosaccharides); assay: sandwich ELISA, captured rFc fusion at various concentrations, OVCAR-3 supernatant, OC125 detection; nonlinear regression/Scatchard
T2 construct: Not purified: used as OVCAR-3 culture supernatant, detected with the anti-CA125 mAb OC125; also called MUC16; OVCAR-3 supernatant containing CA125
Description: (§2) Scatchard plots (top left corner) were made. ELISA plates captured the Fc mesothelin mutant fusion proteins at various concentrations (x axis; see Experimental Procedures). OVCAR-3 supernatant containing soluble CA125 was then added, followed by the OC125 mAb and a goat anti-mouse IgG HRP.
(§3) Sandwich ELISA—Nunc MaxiSorp 96 well flat-bottomed plates were incubated overnight with 5 μg/mL, goat anti-rabbit IgG (Jackson ImmunoResearch Laboratories) in PBS, followed by an overnight block with 5% BSA, 0.01% NaN₃ in PBS. Purified Fc mesothelin fragments were diluted to 1 μg/mL in ELISA buffer (0.01% Tween 20, 10% Pierce SuperBlock) and incubated on plate for 1 h at room temperature (RT). Plates were then incubated with OVCAR-3 supernatant containing CA125 for 1 h at RT. To detect bound CA125 a 1:200 dilution of anti-CA125 OC125 mAb (Zymed) was incubated for an additional hour at RT; subsequently a 1:1500 dilution of goat anti-mouse IgG HRP conjugate (Biosource) was added for 1 h at RT. The plates were washed four times with ELISA buffer between each coating.
(§4) Kinetic studies by ELISA—To precisely characterize the interaction between CA125 and mesothelin and to determine a binding affinity (KD) for each mesothelin fragment, we used a quantitative ELISA-based assay. ELISA plates were coated with a goat anti-rabbit IgG antibody overnight for capturing the Fc mesothelin mutant fusion proteins. OVCAR-3 supernatant containing soluble CA125 was then added, followed by the OC125 mAb. Overall results from the ELISA were consistent with those seen in the Western blot overlay assays except for the E324A mutant of mesothelin (FIG. 5).

[6] = biological target: T2, soluble CA125 in OVCAR-3 supernatant; assay: sandwich ELISA; average KD told of three proteins
Description: as §2, §3
Kinetic studies by ELISA—To precisely characterize the interaction between CA125 and mesothelin and to determine a binding affinity (KD) for each mesothelin fragment, we used a quantitative ELISA-based assay. ELISA plates were coated with a goat anti-rabbit IgG antibody overnight for capturing the Fc mesothelin mutant fusion proteins. […]

[7] = biological target: T2, soluble CA125 in OVCAR-3 supernatant; assay: sandwich ELISA, captured rFc fusion, OVCAR-3 supernatant, OC125 detection
Description: as §3, §4

[8] = biological target: T1, CA125 on the cell surface of OVCAR-3 or …; assay: flow cytometry on YOU cells, FULL set to 100%
Description: FIGS. 7A-B. Binding of truncated mutants and alanine mutants to CA125 on the cell surface of YOU cells. A. YOU mesothelioma cells were incubated with full-length extracellular domain of mesothelin (FULL) or a mutant of mesothelin. The binding was visualized with a goat anti-rabbit IgG PE-conjugated secondary antibody by flow cytometry (gray line). Light gray shaded plot: secondary antibody only. B. A mean fluorescence intensity (geometrical mean) was used to quantitatively measure the CA125 binding on YOU cells. In each experiment, the binding of the full-length mesothelin (FULL) to CA125 was determined as 100% of binding. The secondary antibody only was used as a negative (0%) control.
as §1

[9] = biological target: T2, soluble CA125 in OVCAR-3 supernatant; assay: Western blot overlay with OVCAR-3 supernatant, OC125 detection
Description: FIGS. 4A-B. Western blots of mesothelin fragments and alanine mutants. Each protein (500 ng) was run on an SDS-PAGE gel and transferred to a PVDF membrane. Membrane was blotted with OVCAR-3 supernatant containing CA125 followed by OC125 (anti-CA125 mAb).
Western blots—Purified Fc mesothelin fragments (500 ng) were mixed with Laemmli Sample Buffer (Biorad) supplemented with 5% B-Mercaptoethanol. Samples were boiled for 2 min and separated on 4-20% SDS-PAGE gels (Invitrogen). After transfer for 4 h at 30V, the PVDF membrane was blocked overnight at 4° C. in 1% Western Blocking Reagent (Roche) in Tris buffered saline (50 mM Tris-HCl, 150 mM NaCl). The membrane was then incubated with OVCAR-3 supernatant+0.5% blocking solution for 1 h at RT. This was followed by incubation with 1:200 dilution of OC125 mAb for 1 h at RT. Detection was performed with goat anti-mouse IgG-HRP conjugate (Biosource) 1:1000 for 1 h.

B1: rabbit IgG Fc fusion of the full-length extracellular domain of mesothelin (296-581) (Fc fusion, part only; not given: rabbit Fc, linker, myc tag, not shown: a dimerising Fc or GST; small tags and cut ends)
chain (part 1 of 2), part: EVEKTACPSGKKAREIDESLIFYKKWELEACVDAALLATQMDRVNAIPFTYEQLDVLKHKLDELYPQGYPESVIQHLGYLFLKMSPEDIRKWNVTSLETLKALLEVNKGHEMSPQAPRRPLPQVATLIDRFVKGRGQLDKDTLDTLTAFYPGYLCSLSPEELSSVPPSSIWAVRPQDLDTCDPRQLDVLYPKARLAFQNMNGSEYFVKIQSFLGGAPTEDLKALSQQNVSMDLATFMKLRTDAVLPLTVAEVQKLLGPHVEGLKAEERHRPVRDWILRQRQDDLDT
chain (part 2 of 2), part: HHHHHH
- adhesion of fluorescently labeled mesothelin-expressing H9 cells onto a YOU monolayer [1]: 1 µg/mL
- adhesion of fluorescently labeled mesothelin-expressing H9 cells onto an OVCAR3 monolayer [1]: 10 µg/mL
- Kd [2]: 1.54 nM
- Kd [3]: 3 nM

B2: mesothelin Region IAB (296-359) rabbit IgG Fc fusion protein (Fc fusion, not shown: a dimerising Fc or GST; small tags and cut ends)
chain: EVEKTACPSGKKAREIDESLIFYKKWELEACVDAALLATQMDRVNAIPFTYEQLDVLKHKLDEL
notes: also called Region IAB wild-type (wt)
- binding activity relative to FULL [4]: ~90%
- Kd [5]: 3.35 nM
- Kd [6]: ~3 nM

B3: E324A alanine mutant of mesothelin Region IAB (296-359), rabbit IgG Fc fusion protein (Fc fusion, not shown: a dimerising Fc or GST; small tags and cut ends)
chain: B2 chain with E29A
notes: Alanine mutant within Region IAB
- Kd [5]: 42.4 nM

B4: H354A alanine mutant of mesothelin Region IAB (296-359), rabbit IgG Fc fusion protein (Fc fusion, not shown: a dimerising Fc or GST; small tags and cut ends)
chain: B2 chain with H59A
notes: Alanine mutant within Region IAB; also called H354A mutant of IAB
- Kd [5]: 2.71 nM

B5: W321A alanine mutant of mesothelin Region IAB (296-359), rabbit IgG Fc fusion protein (Fc fusion, not shown: a dimerising Fc or GST; small tags and cut ends)
chain: B2 chain with W26A
notes: as for B3
- Kd [5]: 19.5 nM

B6: Y318A alanine mutant of mesothelin Region IAB (296-359), rabbit IgG Fc fusion protein (Fc fusion, not shown: a dimerising Fc or GST; small tags and cut ends)
chain: B2 chain with Y23A
notes: as for B3
- binding result [7]: no binding

B7: mesothelin Region IB (328-369) rabbit IgG Fc fusion protein (Fc fusion, not shown: a dimerising Fc or GST; small tags and cut ends)
chain: DAALLATQMDRVNAIPFTYEQLDVLKHKLDELYPQGYPESVI
modifications: also: fusion with rabbit IgG Fc, thrombin site with flexible linker, myc epitope (no letters given)
- binding result [7]: no binding
- CA125-binding activity relative to FULL [4]: ~10%
- binding activity relative to FULL [8]: ~10%

B8: mesothelin Region I (296-390) rabbit IgG Fc fusion protein (Fc fusion, not shown: a dimerising Fc or GST; small tags and cut ends)
chain: EVEKTACPSGKKAREIDESLIFYKKWELEACVDAALLATQMDRVNAIPFTYEQLDVLKHKLDELYPQGYPESVIQHLGYLFLKMSPEDIRKWNVT
- Kd [6]: ~3 nM
- CA125 binding activity relative to FULL [8]: ~40%

B9: mesothelin Region IC (360-405) rabbit IgG Fc fusion protein (Fc fusion, not shown: a dimerising Fc or GST; small tags and cut ends)
chain: YPQGYPESVIQHLGYLFLKMSPEDIRKWNVTSLETLKALLEVNKGH
modifications: also: fusion with rabbit IgG Fc, thrombin site with flexible linker, myc epitope (no letters given)
- binding result [7]: no binding

B10: mesothelin Region IBC (328-405) rabbit IgG Fc fusion protein (Fc fusion, not shown: a dimerising Fc or GST; small tags and cut ends)
chain: DAALLATQMDRVNAIPFTYEQLDVLKHKLDELYPQGYPESVIQHLGYLFLKMSPEDIRKWNVTSLETLKALLEVNKGH
- binding result [9]: no binding (tested: 500 ng)

B11: mesothelin Region IA (296-337) rabbit IgG Fc fusion protein, rFc at the C-terminus (Fc fusion)
chain: EVEKTACPSGKKAREIDESLIFYKKWELEACVDAALLATQMD
notes: not shown: junction between fragment and rFc, and any tags, not described for this construct; rabbit IgG Fc (rFc)
- binding result [9]: no binding (tested: 500 ng)
